Test [1] concerns the target T1, human EphA5 extracellular region-SEAP-His protein (human, UniProt P54756 25-573).
T1 construct: extracellular domain; also called Eph receptor extracellular region-SEAP-His protein; not shown: secretory alkaline phosphatase (SEAP); histidine tag
Kind of test: ELISA: SEAP-His proteins (1 nM) captured on anti-6-His antibody, antibody A 10 µg/mL with human IgG 100 µg/mL, HRP anti-mouse IgG, OD450 as % of human EphA4-SEAP-His.

For test [2], the target named is T2, human EphA2 extracellular region-SEAP-His protein (human, UniProt P29317 24-537).
T2 construct: extracellular domain; also called Eph receptor extracellular region-SEAP-His protein; not shown: secretory alkaline phosphatase (SEAP); histidine tag
T2 sequence (P29317 24-537): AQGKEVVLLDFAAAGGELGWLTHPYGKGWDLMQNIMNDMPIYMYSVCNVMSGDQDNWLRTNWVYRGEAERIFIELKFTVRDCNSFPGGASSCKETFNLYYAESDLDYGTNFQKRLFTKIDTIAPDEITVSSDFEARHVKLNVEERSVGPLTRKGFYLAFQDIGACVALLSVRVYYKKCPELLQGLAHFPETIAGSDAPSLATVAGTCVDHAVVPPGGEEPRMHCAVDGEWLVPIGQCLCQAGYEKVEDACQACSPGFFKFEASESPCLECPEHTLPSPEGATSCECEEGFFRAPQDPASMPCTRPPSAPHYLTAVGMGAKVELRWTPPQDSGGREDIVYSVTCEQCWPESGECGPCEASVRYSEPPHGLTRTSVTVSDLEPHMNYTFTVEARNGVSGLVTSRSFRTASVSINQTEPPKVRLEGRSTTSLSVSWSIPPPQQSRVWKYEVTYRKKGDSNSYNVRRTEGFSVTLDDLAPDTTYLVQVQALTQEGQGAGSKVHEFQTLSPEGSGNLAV
Described as above.

For test [3], the target named is T3, human EphB1 extracellular region-SEAP-His protein (human, UniProt P54762 18-540).
T3 construct: extracellular domain; also called Eph receptor extracellular region-SEAP-His protein; not shown: secretory alkaline phosphatase (SEAP); histidine tag
T3 sequence (looked up): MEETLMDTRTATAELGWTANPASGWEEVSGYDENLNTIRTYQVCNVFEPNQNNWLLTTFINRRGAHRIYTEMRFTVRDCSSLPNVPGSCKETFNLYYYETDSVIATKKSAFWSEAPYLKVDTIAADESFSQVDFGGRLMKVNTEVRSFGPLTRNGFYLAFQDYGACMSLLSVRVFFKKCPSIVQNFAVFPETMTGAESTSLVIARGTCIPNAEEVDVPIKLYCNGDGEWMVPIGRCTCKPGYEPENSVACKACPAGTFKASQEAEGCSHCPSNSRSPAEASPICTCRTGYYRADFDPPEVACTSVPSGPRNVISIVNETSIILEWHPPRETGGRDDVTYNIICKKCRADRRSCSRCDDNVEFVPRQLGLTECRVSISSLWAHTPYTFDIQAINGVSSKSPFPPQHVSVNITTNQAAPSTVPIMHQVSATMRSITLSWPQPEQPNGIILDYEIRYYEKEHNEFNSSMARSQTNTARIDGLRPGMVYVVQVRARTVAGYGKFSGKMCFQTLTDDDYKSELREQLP
The test is described as above.

Another test addresses MBP. Kind of test: ELISA: human EphA4 domain-MBP-His proteins (10 nM) captured on anti-6-His antibody, antibody A 10 nM, HRP anti-mouse IgG Fc fragment antibody, OD450-OD650. The protocol: For antibody A, the evaluation of binding activity with various domains in human EphA4 was carried cut according to the following steps.
Rabbit anti-6-His antibodies (Bethyl Laboratories) were coated onto the wells of a 96-well plate (Nunc). After incubating at 4° C. overnight, the wells were blocked at room temperature for 1 hour by 1% Block Ace (DS Pharma Biomedical). After washing twice with 0.02% Tween 20/PBS (Nacalai Tesque), human EphA4 extracellular region-MBP-His protein, human EphA4 ligand binding domain-MBP-His protein, human EphA4 fibronectin type III domain 1-NBP-His protein, and human EphA4 fibronectin type III domain 2-MBP-His protein (final concentration 10 nM) were seeded into the wells, and incubated at room temperature for 1 hour. After washing 3 times, antibody A (final concentration 10 nM) was supplemented to the wells, and incubated at room temperature for 1 hour. Horseradish peroxidase-labeled goat anti-mouse IgG Fcγ fragment antibody (Jackson ImmunoResearch Laboratories) was added, and incubated at room temperature for 1 hour. After washing 5 times, TMB solution (KPL) was added to the wells, and upon confirmation of modest coloring, an equal amount of quenching solution (2 N H₂SO₄, Wako Pure Chemicals) was added to the wells, and absorbance at 450 nm and 650 nm were read by a microplate reader (PerkinElmer).
On the technique in general: In an ELISA, binding on a coated surface is turned into a signal by an enzyme label.

T1 sequence (P54756 25-573): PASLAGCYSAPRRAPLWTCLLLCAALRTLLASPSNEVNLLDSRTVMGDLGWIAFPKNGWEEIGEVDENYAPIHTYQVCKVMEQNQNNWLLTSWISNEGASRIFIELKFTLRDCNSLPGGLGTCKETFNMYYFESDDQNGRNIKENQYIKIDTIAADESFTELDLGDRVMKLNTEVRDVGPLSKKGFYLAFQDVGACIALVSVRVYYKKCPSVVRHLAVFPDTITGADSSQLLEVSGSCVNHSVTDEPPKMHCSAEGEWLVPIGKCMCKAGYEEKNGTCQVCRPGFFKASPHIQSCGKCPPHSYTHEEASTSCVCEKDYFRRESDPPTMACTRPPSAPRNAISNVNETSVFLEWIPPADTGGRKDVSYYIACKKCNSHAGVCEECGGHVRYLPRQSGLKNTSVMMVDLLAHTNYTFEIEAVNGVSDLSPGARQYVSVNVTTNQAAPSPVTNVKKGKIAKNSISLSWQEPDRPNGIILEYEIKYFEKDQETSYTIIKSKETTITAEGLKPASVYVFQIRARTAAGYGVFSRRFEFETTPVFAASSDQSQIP

B1: mouse anti-EphA4 monoclonal antibody (antibody A) (antibody, mouse IgG1, kappa, V domains shown)
VH: QVQLKQSGPSLVQPSQSLSITCTVSGFSLTRYGVHWVRQSPGKGLEWLGVIWRGGSTDYNAAFMSRLSITKDNSKSQVFFKMNSLQADDTAIYYCAKESLFGVYYDYGYYSMDYWGQGTSVTVSS
VL: DIQMTQSPSSLSASLGERVSLTCRASQEISGYLSWLQQKPDGTIKRLIYAASTLDSGVPKRFSGSRSGSDYSLTISSLESEDFADYYCLQYASYPLTFGAGTKLELKR
notes: purified from hybridoma supernatant
B1: the binding result was “no binding (tested: 10 µg/mL)” in test [1], “no binding (tested: 10 µg/mL)” in test [2], “no binding (tested: 10 µg/mL)” in test [3] and “no binding (tested: 10 nM)” with MBP.

Source of the values: US20240010735A1 (EISAI R AND D MANAGEMENT, published 2024).
